Laboratory results from article PMC12431857, “A multichaperone condensate enhances protein folding in the endoplasmic reticulum” (Nature Cell Biology, 2025).

B1: Human PDIA6 lacking its ER signal sequence (residues 19-440) (natural protein, UniProt Q15084-1 19-440, looked up)
chain: GLYSSSDDVIELTPSNFNREVIQSDSLWLVEFYAPWCGHCQRLTPEWKKAATALKDVVKVGAVDADKHHSLGGQYGVQGFPTIKIFGSNKNRPEDYQGGRTGEAIVDAALSALRQLVKDRLGGRSGGYSSGKQGRSDSSSKKDVIELTDDSFDKNVLDSEDVWMVEFYAPWCGHCKNLEPEWAAAASEVKEQTKGKVKLAAVDATVNQVLASRYGIRGFPTIKIFQKGESPVDYDGGRTRSDIVSRALDLFSDNAPPPELLEIINEDIAKRTCEEHQLCVVAVLPHILDTGAAGRNSYLEVLLKLADKYKKKMWGWLWTEAGAQSELETALGIGGFGYPAMAAINARKMKFALLKGSFSEQGINEFLRELSFGRGSTAPVGGGAFPTIVEREPWDGRDGELPVEDDIDLSDVELDDLGKDEL
notes: Homodimer by SEC-MALS; Isotope-labelled (methyl labelling) for NMR; also called PDIA6 WT; PDIA6 full-length; not shown: His6, N-terminal, cleaved

Key:
[1] = target: T1, Human BiP lacking its ER signal sequence (residues 19-654) (human, UniProt P11021 19-654); experiment: NMR titration; 2D [13C,1H]-HMQC or [15N,1H]-HSQC of 100 μM labelled protein without and with 2 eq. of the unlabelled partner; chemical shift perturbation mapping; 37 °C; details: both partners purified
T1 construct: Isotope-labelled (Ile, Met, Val methyl groups) where it was the observed protein in NMR; also called Hsp70 BiP; GRP78; not shown: His6, N-terminal, cleaved

[2] = target: the molecule itself; experiment: SEC-MALS; S200 10/300 GL column, 25 °C, SEC buffer (25 mM HEPES pH 7.5, 150 mM KCl, 10 mM MgCl2); proteins eluted at 20 μM
[3] = target: T1, Human BiP lacking its ER signal …; experiment: MST; 20 nM N-terminally tagged DyLight 488-PDIA6 with increasing BiP; SEC buffer with 5 mM ADP, 1 mM KH2PO4/K2HPO4, 0.05% Tween, 1 mM CaCl2; 30 min at 25 °C; Monolith NT.115; triplicates; details: both partners purified
[4] = target: B1; experiment: NMR titration; 2D [13C,1H]-HMQC of methyl-labelled full-length PDIA6 with 10 mM Ca2+, 10 eq. linker peptide added, no crowding agent, 37 °C; read-out: populations of conformations P and O of domain b; also after addition of 1 M KCl; details: both partners purified

T1 sequence (P11021 19-654): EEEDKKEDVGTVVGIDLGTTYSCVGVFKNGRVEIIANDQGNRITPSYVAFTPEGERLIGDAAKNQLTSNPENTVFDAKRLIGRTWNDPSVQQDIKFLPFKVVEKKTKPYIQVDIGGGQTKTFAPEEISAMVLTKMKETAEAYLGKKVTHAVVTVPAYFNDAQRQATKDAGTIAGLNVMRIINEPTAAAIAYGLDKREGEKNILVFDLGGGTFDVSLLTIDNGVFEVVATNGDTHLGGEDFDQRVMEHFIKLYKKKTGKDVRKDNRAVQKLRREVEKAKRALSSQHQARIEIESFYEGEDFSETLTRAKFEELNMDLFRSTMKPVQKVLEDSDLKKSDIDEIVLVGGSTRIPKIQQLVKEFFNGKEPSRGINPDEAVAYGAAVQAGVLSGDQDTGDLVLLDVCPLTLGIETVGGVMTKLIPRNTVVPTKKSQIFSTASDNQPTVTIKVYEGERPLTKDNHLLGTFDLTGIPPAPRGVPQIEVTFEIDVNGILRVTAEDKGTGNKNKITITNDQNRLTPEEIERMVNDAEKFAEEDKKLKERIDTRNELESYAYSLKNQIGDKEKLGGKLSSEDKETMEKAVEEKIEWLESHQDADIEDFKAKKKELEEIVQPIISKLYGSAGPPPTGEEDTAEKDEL

Binder	stoichiometry N [2]	also measured
PDIA6 his-domain ab (residues 161-440) (domain or fragment, human, UniProt Q15084 161-440, looked up, PDIA6, human, domains a and b with the C-terminal tail, residues 161-440; also called PDIA6 domain ab; his-TEV-domain ab; source: E. coli BL21-(DE3)-Lemo, purified (Ni-NTA, SEC); not shown: His6, N-terminal, kept) DVIELTDDSFDKNVLDSEDVWMVEFYAPWCGHCKNLEPEWAAAASEVKEQTKGKVKLAAVDATVNQVLASRYGIRGFPTIKIFQKGESPVDYDGGRTRSDIVSRALDLFSDNAPPPELLEIINEDIAKRTCEEHQLCVVAVLPHILDTGAAGRNSYLEVLLKLADKYKKKMWGWLWTEAGAQSELETALGIGGFGYPAMAAINARKMKFALLKGSFSEQGINEFLRELSFGRGSTAPVGGGAFPTIVEREPWDGRDGELPVEDDIDLSDVELDDLGKDEL		binding result [1]: binds
B1	2	binding result [1]: binds
PDIA6 (K150N, R153Q, K159N) linker mutant (natural protein, human, UniProt Q15084 19-440, looked up, PDIA6, human, residues 19-440; source: E. coli BL21-(DE3)-Lemo, purified as the WT protein; not shown: His6, N-terminal, cleaved) GLYSSSDDVIELTPSNFNREVIQSDSLWLVEFYAPWCGHCQRLTPEWKKAATALKDVVKVGAVDADKHHSLGGQYGVQGFPTIKIFGSNKNRPEDYQGGRTGEAIVDAALSALRQLVKDRLGGRSGGYSSGNQGQSDSSSNKDVIELTDDSFDKNVLDSEDVWMVEFYAPWCGHCKNLEPEWAAAASEVKEQTKGKVKLAAVDATVNQVLASRYGIRGFPTIKIFQKGESPVDYDGGRTRSDIVSRALDLFSDNAPPPELLEIINEDIAKRTCEEHQLCVVAVLPHILDTGAAGRNSYLEVLLKLADKYKKKMWGWLWTEAGAQSELETALGIGGFGYPAMAAINARKMKFALLKGSFSEQGINEFLRELSFGRGSTAPVGGGAFPTIVEREPWDGRDGELPVEDDIDLSDVELDDLGKDEL	2	
PDIA6 (R142Q, K150N, R153Q) linker mutant (natural protein, human, UniProt Q15084 19-440, looked up, PDIA6, human, residues 19-440; source: E. coli BL21-(DE3)-Lemo, purified as the WT protein; not shown: His6, N-terminal, cleaved) GLYSSSDDVIELTPSNFNREVIQSDSLWLVEFYAPWCGHCQRLTPEWKKAATALKDVVKVGAVDADKHHSLGGQYGVQGFPTIKIFGSNKNRPEDYQGGRTGEAIVDAALSALRQLVKDRLGGQSGGYSSGNQGQSDSSSKKDVIELTDDSFDKNVLDSEDVWMVEFYAPWCGHCKNLEPEWAAAASEVKEQTKGKVKLAAVDATVNQVLASRYGIRGFPTIKIFQKGESPVDYDGGRTRSDIVSRALDLFSDNAPPPELLEIINEDIAKRTCEEHQLCVVAVLPHILDTGAAGRNSYLEVLLKLADKYKKKMWGWLWTEAGAQSELETALGIGGFGYPAMAAINARKMKFALLKGSFSEQGINEFLRELSFGRGSTAPVGGGAFPTIVEREPWDGRDGELPVEDDIDLSDVELDDLGKDEL	2	
DyLight 488-PDIA6 (N-terminally tagged, residues 19-440) (natural protein, human, UniProt Q15084 19-440, looked up, DyLight 488 amine-reactive dye on the N-terminus, Same construct as m1, fluorescently labelled for MST (0.75-1.5 moles dye per mole protein); not shown: His6, N-terminal, cleaved) GLYSSSDDVIELTPSNFNREVIQSDSLWLVEFYAPWCGHCQRLTPEWKKAATALKDVVKVGAVDADKHHSLGGQYGVQGFPTIKIFGSNKNRPEDYQGGRTGEAIVDAALSALRQLVKDRLGGRSGGYSSGKQGRSDSSSKKDVIELTDDSFDKNVLDSEDVWMVEFYAPWCGHCKNLEPEWAAAASEVKEQTKGKVKLAAVDATVNQVLASRYGIRGFPTIKIFQKGESPVDYDGGRTRSDIVSRALDLFSDNAPPPELLEIINEDIAKRTCEEHQLCVVAVLPHILDTGAAGRNSYLEVLLKLADKYKKKMWGWLWTEAGAQSELETALGIGGFGYPAMAAINARKMKFALLKGSFSEQGINEFLRELSFGRGSTAPVGGGAFPTIVEREPWDGRDGELPVEDDIDLSDVELDDLGKDEL		Kd [3]: ~50 µM
PDIA6 5x linker mutant (R142Q, K150N, R153Q, K159N and K160N) (natural protein, human, UniProt Q15084 19-440, looked up, PDIA6, human, residues 19-440; source: E. coli BL21-(DE3)-Lemo, purified as the WT protein; not shown: His6, N-terminal, cleaved) GLYSSSDDVIELTPSNFNREVIQSDSLWLVEFYAPWCGHCQRLTPEWKKAATALKDVVKVGAVDADKHHSLGGQYGVQGFPTIKIFGSNKNRPEDYQGGRTGEAIVDAALSALRQLVKDRLGGQSGGYSSGNQGQSDSSSNNDVIELTDDSFDKNVLDSEDVWMVEFYAPWCGHCKNLEPEWAAAASEVKEQTKGKVKLAAVDATVNQVLASRYGIRGFPTIKIFQKGESPVDYDGGRTRSDIVSRALDLFSDNAPPPELLEIINEDIAKRTCEEHQLCVVAVLPHILDTGAAGRNSYLEVLLKLADKYKKKMWGWLWTEAGAQSELETALGIGGFGYPAMAAINARKMKFALLKGSFSEQGINEFLRELSFGRGSTAPVGGGAFPTIVEREPWDGRDGELPVEDDIDLSDVELDDLGKDEL	2	
GGRSGGYSSGKQGRSDSSSKK (linker between domains a0 and a of human PDIA6; Limits worked out from the printed positions R142, K150, R153, K159, K160 of the linker mutants; also called linker peptide) [21-residue peptide corresponding to the a0-a linker of PDIA6]		binding result [4]: binds
